# From patent publication US20230357429A1 (JANUX THERAPEUTICS, published 2023)
# Changes are numbered by the printed parent chain. Numbers in names are those of the source. Where no end group is shown, it is not given here.
# T1: Human TROP2 ECD (31-274 AA), biotinylated (human, UniProt P09758 31-274, biotinylated (site not stated))
# T1 construct: also called tumor-associated calcium signal transducer 2; Human TROP2-biotin
# T1 sequence: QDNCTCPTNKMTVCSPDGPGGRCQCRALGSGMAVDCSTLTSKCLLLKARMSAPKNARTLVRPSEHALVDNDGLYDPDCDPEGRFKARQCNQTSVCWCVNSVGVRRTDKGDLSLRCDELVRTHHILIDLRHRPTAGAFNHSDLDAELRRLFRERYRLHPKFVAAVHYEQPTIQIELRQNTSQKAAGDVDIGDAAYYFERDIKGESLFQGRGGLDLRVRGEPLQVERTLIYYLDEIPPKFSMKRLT
# B1: TBD-2 (anti-TROP2 Fab, LC Q89A) (Fab, V domains shown)
# VH: QVQLQQSGSELKKPGASVKVSCKASGYTFTNYGMNWVKQAPGQGLKWMGWINTYTGEPTYTDDFKGRFAFSLDTSVSTAYLQISSLKADDTAVYFCARGGFGSSYWYFDVWGQGSLVTVSS
# VL: DIQLTQSPSSLSASVGDRVSITCKASQDVSIAVAWYQQKPGKAPKLLIYSASYRYTGVPDRFSGSGSGTDFTLTISSLQPEDFAVYYCAQHYITPLTFGAGTKVEIKR
# B2: TBD-9 (anti-TROP2 Fab, LC L96A) (Fab, V domains shown)
# VH: B1 VH
# VL: B1 VL with A89Q, L96A
# B3: TBD-8 (anti-TROP2 Fab, LC P95A) (Fab, V domains shown)
# VH: B1 VH
# VL: B1 VL with A89Q, P95A
# B4: TBD-3 (anti-TROP2 Fab, LC Q90A) (Fab, V domains shown)
# VH: B1 VH
# VL: B1 VL with A89Q, Q90A
# B5: TBD-6 (anti-TROP2 Fab, LC I93A) (Fab, V domains shown)
# VH: B1 VH
# VL: B1 VL with A89Q, I93A
# notes: also called TBD-6 (LC I93A mutant)
# B6: TBD-10 (anti-TROP2 Fab, LC T97A) (Fab, V domains shown)
# VH: B1 VH
# VL: B1 VL with A89Q, T97A
# B7: TBD-7 (anti-TROP2 Fab, LC T94A) (Fab, V domains shown)
# VH: B1 VH
# VL: B1 VL with A89Q, T94A
# B8: TBD-18 (anti-TROP2 Fab, HC Y105A) (Fab, V domains shown)
# VH: B1 VH with Y105A
# VL: B1 VL with A89Q
# B9: PC-11 (bispecific antibody)
# light: not shown
# heavy: GGVDFCGLYHWPICYQGGGGSSGGSAAGLLAPPGGLSGRSDAGGGGSQVQLQQSGSELKKPGASVKVSCKASGYTFTNYGMNWVKQAPGQGLKWMGWINTYTGEPTYTDDFKGRFAFSLDTSVSTAYLQISSLKADDTAVYFCARGGFGSSYWYFAVWGQGSLVTVSSASTKGPSVFPLAPSSKSTSGGTAALGCLVKDYFPEPVTVSWNSGALTSGVHTFPAVLQSSGLYSLSSVVTVPSSSLGTQTYICNVNHKPSNTKVDKKVEPKSC
# notes: anti-TROP2 D109A
# B10: PC-10 (bispecific antibody)
# light: GGVDFCGLYHWPICYQGGGGSSGGSAAGLLAPPGGLSGRSDAGGGGSDIQLTQSPSSLSASVGDRVSITCKASQDVSIAVAWYQQKPGKAPKLLIYSASYRYTGVPDRFSGSGSGTDFTLTISSLQPEDFAVYYCQQHYITPLTFGAGTKVEIKRTVAAPSVFIFPPSDEQLKSGTASVVCLLNNFYPREAKVQWKVDNALQSGNSQESVTEQDSKDSTYSLSSTLTLSKADYEKHKVYACEVTHQGLSSPVTKSFNRGEC
# heavy: not shown
# notes: anti-TROP2 D109A
# B11: PC-9 (bispecific antibody)
# light: not shown
# heavy: GGVDFCGLYHWPICYQGGGGSGGLSGRSDAGSPLGLAGSGGSQVQLQQSGSELKKPGASVKVSCKASGYTFTNYGMNWVKQAPGQGLKWMGWINTYTGEPTYTDDFKGRFAFSLDTSVSTAYLQISSLKADDTAVYFCARGGFGSSYWYFAVWGQGSLVTVSSASTKGPSVFPLAPSSKSTSGGTAALGCLVKDYFPEPVTVSWNSGALTSGVHTFPAVLQSSGLYSLSSVVTVPSSSLGTQTYICNVNHKPSNTKVDKKVEPKSC
# notes: anti-TROP2 D109A
# B12: TBD-19 (anti-TROP2 Fab, HC W106A) (Fab, V domains shown)
# VH: B1 VH with W106A
# VL: B1 VL with A89Q
# B13: Peptide-67 (peptide)
# peptide: VYCGPEFDESVGCM
# modifications: cysteine pairing not given here; also: biotinylated, site not given here
# notes: mask peptide for the CD3 scFv
# B14: Peptide-72 (peptide)
# peptide: AYCGPEFDESVGCM
# modifications: cysteine pairing not given here; also: biotinylated, site not given here
# notes: mask peptide for the CD3 scFv
# B15: Peptide-66 (peptide)
# peptide: GSQCLGPEWEVCPY
# modifications: cysteine pairing not given here; also: biotinylated, site not given here
# notes: mask peptide for the CD3 scFv
# B16: Peptide-74 (peptide)
# peptide: ASQCLGPEWEVCPY
# modifications: cysteine pairing not given here; also: biotinylated, site not given here
# notes: mask peptide for the CD3 scFv
# Target: T1, Human TROP2 ECD (31-274 AA), …
# Assay: ELISA: biotinylated TROP2 captured on neutravidin plate, Fab titrated, HRP secondary antibody
row,EC50,Binder
1,4.71 nM,B1
2,16.8 nM,B2
3,0.2 nM,B3
4,0.27 nM,B4
5,0.29 nM,B5
6,0.29 nM,B6
7,0.22 nM,B7

# Target: T1, Human TROP2 ECD (31-274 AA), …
# Assay: ELISA, ratio of EC50 to that of TBD-1 wt
row,Fold shift in EC50 relative to wt,Binder
1,4000 fold,B8

# Target: T1, Human TROP2 ECD (31-274 AA), …
# Assay: ELISA on immobilized TROP2
row,EC50,Binder
1,379 nM,B9
2,181 nM,B10
3,194 nM,B11

# Target: T1, Human TROP2 ECD (31-274 AA), …
# Assay: ELISA: biotinylated TROP2 captured on neutravidin plate, Fab titrated, HRP secondary antibody
# Remark: another data set of the same source
row,EC50,Binder
1,702 nM,B12
2,801 nM,B8

# Target: T1, Human TROP2 ECD (31-274 AA), …
# Assay: BLI (Octet), dissociation half-life from biotinylated human TROP2 ECD
row,t1/2,Binder
1,24 min,B1
2,5 min,B2
3,61 min,B3
4,27 min,B4
5,28 min,B5
6,37 min,B6
7,39 min,B7

# Target: T2, TCE-1 (anti-CD3 scFv wt; anti-TROP2 Fab wt)
# T2 construct: anti-CD3 scFv fused to the N-terminus of the anti-TROP2 Fab heavy chain; also called TCE-1 (wt)
# Assay: competition ELISA: peptide titrated and pre-incubated with a constant concentration of TCE-1, binding of TCE-1 to plate-bound biotinylated CD3 detected
binding result,IC50 (read off the curve),Binder
binds,–,B13
–,~300 nM,B14
binds,–,B15
binds,–,B16

# Target: T1, Human TROP2 ECD (31-274 AA), …
# Assay: ELISA, biotinylated TROP2 ECD on neutravidin plate, Fab titrated
row,EC50,Binder
1,4.7 nM,B1
2,16.8 nM,B2
3,0.2 nM,B3
4,0.3 nM,B4
5,0.3 nM,B5
6,0.3 nM,B6
7,0.2 nM,B7

# Target: T3, TCE-10 (anti-CD3 scFv R100A; anti-TROP2 wt)
# T3 construct: scFv on the Fab heavy chain; also called TCE-10 (R100A)
# Assay: competition ELISA, TCE on captured CD3
row,IC50,Binder
1,18600 nM,B13
2,45600 nM,B14
3,13000 nM,B15
4,16100 nM,B16

# Target: T4, TCE-11 (anti-CD3 scFv H101A; anti-TROP2 wt)
# T4 construct: scFv on the Fab heavy chain; also called TCE-11 (H101A)
# Assay: competition ELISA, TCE on captured CD3
row,IC50,Binder
1,2820 nM,B13
2,790 nM,B14
3,2620 nM,B15
4,1110 nM,B16

# Target: T5, TCE-14 (anti-CD3 scFv F104A; anti-TROP2 wt)
# T5 construct: scFv on the Fab heavy chain; also called TCE-14 (F104A)
# Assay: competition ELISA, TCE on captured CD3
row,IC50,Binder
1,240 nM,B13
2,320 nM,B14
3,7090 nM,B15
4,2470 nM,B16

# Target: T6, TCE-13 (anti-CD3 scFv N103A; anti-TROP2 wt)
# T6 construct: scFv on the Fab heavy chain; also called TCE-13 (N103A)
# Assay: competition ELISA, TCE on captured CD3
row,IC50,Binder
1,3360 nM,B13
2,3960 nM,B14
3,21400 nM,B15
4,10600 nM,B16

# Target: T7, TCE-20 (anti-CD3 scFv S110A; anti-TROP2 wt)
# T7 construct: scFv on the Fab heavy chain; also called TCE-20 (S110A)
# Assay: competition ELISA, TCE on captured CD3
row,IC50,Binder
1,1320 nM,B13
2,3650 nM,B14
3,721000 nM,B15
4,86600 nM,B16

# Target: T8, TCE-31 (anti-CD3 scFv W238A; anti-TROP2 wt)
# T8 construct: scFv on the Fab heavy chain; also called TCE-31 (W238A)
# Assay: competition ELISA, TCE on captured CD3
row,IC50,Binder
1,21600 nM,B13
2,29900 nM,B14
3,51500 nM,B15
4,33800 nM,B16

# Target: T9, TCE-22 (anti-CD3 scFv W112A; anti-TROP2 wt)
# T9 construct: scFv on the Fab heavy chain; also called TCE-22 (W112A)
# Assay: competition ELISA, TCE on captured CD3
row,IC50,Binder
1,38500 nM,B13
2,40200 nM,B14
3,75400 nM,B16

# Target: T10, TCE-33 (anti-CD3 scFv F240A; anti-TROP2 wt)
# T10 construct: scFv on the Fab heavy chain; also called TCE-33 (F240A)
# Assay: competition ELISA, TCE on captured CD3
row,IC50,Binder
1,1250 nM,B13
2,2700 nM,B14
3,3710 nM,B15
4,3080 nM,B16

# Target: T1, Human TROP2 ECD (31-274 AA), …
# Assay: ELISA, ratio of EC50 to that of TBD-1 wt
# Remark: another data set of the same source
row,Fold shift in EC50 relative to wt,Binder
1,23.5 fold,B1
2,84 fold,B2
3,1 fold,B3
4,1.5 fold,B4
5,1.5 fold,B5
6,1.5 fold,B6
7,1 fold,B7

# Target: T1, Human TROP2 ECD (31-274 AA), …
# Assay: ELISA, biotinylated TROP2 ECD on neutravidin plate, Fab titrated
# Remark: another data set of the same source
row,EC50,Binder
1,702 nM,B12
2,801 nM,B8

# Target: T1, Human TROP2 ECD (31-274 AA), …
# Assay: BLI (Octet), biotinylated human TROP2 ECD on SAX sensor, Fab 6.25-50 nM
row,Kd,Binder
1,10.4 nM,B1
2,8.4 nM,B2
3,0.3 nM,B3
4,0.7 nM,B4
5,0.7 nM,B5
6,0.6 nM,B6
7,0.6 nM,B7
